Results taken from patent publication US10052368B2, “Pegylated tissue kallikrein, and preparation method therefor and uses thereof” (ZONHON BIOPHARMA INSTITUTE INC., priority 2013, dated 2018).

Test system: cerebral ischemia reperfusion model of middle cerebral artery obstruction (MCAO)
Assay: Cerebral ischemia reperfusion model of middle cerebral artery obstruction (MCAO)
Format: in vivo
Settings: SD rats, 3 μg/kg once via vena caudalis
Text: A cerebral ischemia reperfusion model of middle cerebral artery obstruction (MCAO) was established by thread embolizing the internal carotid artery of SD rats (purchased from Shanghai Sippr bk Laboratory Animal Co. LTD.) A positive control 1 group (urinary kallikrein, Guangdong Tianpu Biochemical Pharmaceutical Co., LTD.), a positive control 2 group (tPA, Shanghai Boehringer Ingelheim Pharmaceuticals Co., LTD), a model control group (PBS), a sham group, a kallikrein group (from Changzhou Qianhong Biochemical Pharmaceutical Co., LTD.), a conjugate 1 group, a conjugate 2 group, a conjugate 3 group, and a conjugate 4 group were arranged respectively. Administration by injection through vena caudalis was performed once at 3 μg/kg (calculated according to the protein amount) immediately after the cerebral ischemia reperfusion. Neurologic deficit symptoms were observed 24 h after the reperfusion, and the cerebral infarction area was determined. In the model group, an equal volume of PBS was injected through vena caudalis into the rat. In the sham group, only blood vessels were separated, no embolizing thread was inserted, and an equal volume of PBS was injected through vena caudalis into the rats. Neurologic deficit symptoms were evaluated employing an improved Bederson 5-point system method. Neurologic deficit symptoms of the rats after brain trauma were evaluated by a single-blind method, i.e., the animals were marked according to groups by designers of the experiment, and scores of the neurologic deficit symptoms were given by experimenters blind to the grouping situation. The cerebral infarction area was calculated employing the following method. Cerebrums of the SD rats were stained with TTC (2,3,5-triphenyltetrazolium chloride) and then the photographs were subjected to statistics using an image analysis software, and the percentage of cerebral infarction area was calculated according to the following formula: % cerebral infarction area=100×(total ischemic area/total area on the right side)

B1: Positive control 2: tPA, Shanghai Boehringer Ingelheim Pharmaceuticals (protein, UniProt P00750 36-562, looked up)
Tissue-type plasminogen …: SYQVICRDEKTQMIYQQHQSWLRPVLRSNRVEYCWCNSGRAQCHSVPVKSCSEPRCFNGGTCQQALYFSDFVCQCPEGFAGKCCEIDTRATCYEDQGISYRGTWSTAESGAECTNWNSSALAQKPYSGRRPDAIRLGLGNHNYCRNPDRDSKPWCYVFKAGKYSSEFCSTPACSEGNSDCYFGNGSAYRGTHSLTESGASCLPWNSMILIGKVYTAQNPSAQALGLGKHNYCRNPDGDAKPWCHVLKNRRLTWEYCDVPSCSTCGLRQYSQPQFRIKGGLFADIASHPWQAAIFAKHRRSPGERFLCGGILISSCWILSAAHCFQERFPPHHLTVILGRTYRVVPGEEEQKFEVEKYIVHKEFDDDTYDNDIALLQLKSDSSRCAQESSVVRTVCLPPADLQLPDWTECELSGYGKHEALSPFYSERLKEAHVRLYPSSRCTSQHLLNRTVTDNMLCAGDTRSGGPQANLHDACQGDSGGPLVCLNDGRMTLVGIISWGLGCGQKDVPGVYTKVTNYLDWIRDNMRP
amelioration of cerebral infarction status of the model animals (in words): no apparent amelioration | Cerebral infarction area (%) (24 h after reperfusion, TTC staining): 31.55 ± 2.71% | Score of neurologic deficit symptom (24 h after reperfusion, improved Bederson 5-point system): 3.00 ± 0.20
